{
  "source": "the nanobody polyreactivity screen of Harvey et al. (2022)",
  "data": [
    {"assay": "yeast display, Sf9 membrane polyspecificity reagent, FACS + sequencing; frameworks hold sequencing errors", "summary_of_the_method": "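Galactose induction of a Saccharomyces cerevisiae BJ5465 synthetic nanobody display library ran 36–48 hours. The cells were then stained for 1 hour at 4 °C with 10% biotinylated, detergent-solubilized Sf9 membrane reagent, pulled down on streptavidin microbeads and FACS-sorted into low and high (top ~1%) gates on expression and reagent-binding fluorescence. Labels for polyreactivity follow the gate of origin.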", "values": [
      {"sequence": "QLQLVESGGGLVQAGGSLRLSCAASGRIFQRYAMGWYRQAPGKERELVAGITSSGGSTYYADSVKGRFTISRDNAKNTVYLQMNSLKPEDTAVYYCNAGGELRYYGYRAGGTTRSYDYWGQGTQVTVSS", "polyreactivity (PSR sort gate)": "low polyreactivity"},
      {"sequence": "QLQLVESGGGLVQAGGSLRLSCAASGRTFERNAMGWYRQARGQERELVAAITWSGVSTYYADSVKGRFTISRDNAKNTVYLQMNSLKPEDTAVYYCAADWDWRFHRMNYWGQGTQVTVSS", "polyreactivity (PSR sort gate)": "low polyreactivity"},
      {"sequence": "QLQLVESGGGLVQAGGSLRLSCAASGRTLSRYAMGWYRQAPGNERELVAVISSRGGSTYYADSVKGRFTISRDNAKNTVYLRMNSLKPEDTAVFYCAAVRNRHGYDYWGQGTQVTVSS", "polyreactivity (PSR sort gate)": "high polyreactivity"},
      {"sequence": "QLQLVESGGGLVQAGGSLRLSCAASGSIFDGNAMGWYRQAPGKERELVAAITNSGGSTYYADSVKGRFTISRDNAKNTVYLQMNSLKPEDTAVYYCNALPFAWRRYRWVRTMYYWGQGTQVTVSS", "polyreactivity (PSR sort gate)": "low polyreactivity"},
      {"sequence": "QLQLVESGGGLVQAGGSLRLSCAASGSIFNIYAMGWYRQAPGKERELVATITGIADYTYYADSVMGRFTISRDNAKNTVYLQMNSLKPEDTAVYYCAADKYVSEYDYWGQGTQVTVSS", "polyreactivity (PSR sort gate)": "low polyreactivity"},
      {"sequence": "QLQLVESGGGLVQAGGSLRLSCAASGSTFTWKAMGWYRQAPGKERELVAAITSGCRTYYADSVKGRFTISRDNAKNTVYIEMNSLKPEDTAVYYCAAKVRHYYSASNYYYWGQGTQVTVSS", "polyreactivity (PSR sort gate)": "high polyreactivity"},
      {"sequence": "QLQLVESGGGLVQAGGSLRLSCAASGSTFVLYAKGWYRQAPGKERELVAAITWSGDDTYYADSVKGRFTISRDNEKNTVYLQMTSLKPEDTAVYSCAADGRGDLYVWPGIGGDYWGQGTQVTVSS", "polyreactivity (PSR sort gate)": "low polyreactivity"},
      {"sequence": "QLQLVESGGGLVQAGGSLRLSCAASGSTSVTNAMGWYRQAPGKEREFVATINYSGTSTYYADSVKGRFTISRDNAKNTVYLQMNSLKPEDTAVYYCNAHDFGFYRFSLPGYDYWGQGTQVTVSS", "polyreactivity (PSR sort gate)": "low polyreactivity"},
      {"sequence": "QLQLVESGGGLVQAGGSLRLSCAASGYTFKWYAMGCYRQAPGKERELVAAIRGSGGSSYYAVSVKGRFTISRDNAKNTVYLQMNSLKPEDTAGYYCNAVLRWAQNPRIFLGYDYWGQGTQVTVSS", "polyreactivity (PSR sort gate)": "high polyreactivity"},
      {"sequence": "QLQLVESGGGLVQAGGSLRLSCAASVFTFYVNAMGWYRQAPGKERELVAAISSSGTRTYYADSVKGRFTISRDNAKNTVYLKMNSMKPEDTAVYYCAARAYQHYKWGQGTQVTVSS", "polyreactivity (PSR sort gate)": "high polyreactivity"},
      {"sequence": "QLQLVESGGGLVQAGGSLRLSCAASVRTFNSYAMGRYRQAPGKERELVAGISTSGDNTYYADSVKGRFTISRDNAKNTVFLQMNSLKPEDSAVYYCATQFPPSTIYDYWGQGTQVTVSS", "polyreactivity (PSR sort gate)": "low polyreactivity"},
      {"sequence": "QLQLVESGGGLVQAGGSLRLSFAAYGRTFTSNAKGWSRPAPGKERELVAGITSSTGNTHYADSVKGRFTSSRDNAKNTVNFQMNSLKPEDTAVFYCAAVYYVRGYWGTYSRWYDYWGQGTQVTVSS", "polyreactivity (PSR sort gate)": "high polyreactivity"},
      {"sequence": "QLQLVESGGGLVQAGGSLRLTCAASGSIFEVKAMGWYRQAPGTERELVATITYSGGSTYYADSVKGRFTISRDNAKKTVYFQMNSLKPEDTAVYYCATHYVVWELYIYDYWGQGTQVTVSS", "polyreactivity (PSR sort gate)": "low polyreactivity"},
      {"sequence": "QLQLVESGGGLVQAGGSLRLTCAASGSTFTKYDMGWYRQAPGKERELVAAIRSGGDTNYADSVKGRFTISRDNAKYTVYLQMNSLKPEDTAVYYCNTLRNWYYQFDFNYWGQGTQVTVSS", "polyreactivity (PSR sort gate)": "low polyreactivity"},
      {"sequence": "QLQLVESGGGLVQAGGSRRISCAASGRTFDSNAMGSYRHAPGKERELVAAIYADSVKGRFTISRENAKNTVSLQMNFLKPEDTAVYYCAAETYSGQTYLGEYDFWGQGTQVTVSS", "polyreactivity (PSR sort gate)": "low polyreactivity"},
      {"sequence": "QLQLVESGGGLVQARGSLRLICADSGRIFTSYTMGWYRQAPGKERELVAAIDWSGGTTYYADSVKGPFTISRDNAKNTVYFQMISLKPEDTAVYYCSALYVIVGYYTYEYWGQGTQVTVSS", "polyreactivity (PSR sort gate)": "low polyreactivity"},
      {"sequence": "QLQLVESGRGLVQAGGSLRLSCAASGSTFQLYTMGLYRQAPGKERELVAAITGSGGSTYYADSVKGRFTISRDNAKNTVYLQMNSLKPEDTAVYYCAAKSSFRIAWEYYYWGQGTQGTVSS", "polyreactivity (PSR sort gate)": "high polyreactivity"},
      {"sequence": "QLQLVESRGGLVQAGGSLRVSCAASGRISQIYAMGWSRQAPGKERELVARITSTDSTYYADSVKGRFTISRDNAKNTVYLQMNSLKPEDTAVYYCAASWWSPYDYWGQGTQVTVSS", "polyreactivity (PSR sort gate)": "low polyreactivity"},
      {"sequence": "QLQLVESVGGLDQAGGSLRLSCAASGSIFIRNAIGSYRQAPGKERELVAAISSTGSTYYADSVKGRFTISRDNAKNTVYLQMNSLKPEDTAVYYCADYYTVAMDYWGQGTQVTVSS", "polyreactivity (PSR sort gate)": "low polyreactivity"},
      {"sequence": "QLQLVESVGGLDQAGGSLRLSCAASRSNFGPYAIGWYRQAPGKERELVAAITWSGDSTYYADSVKGRFTISRDNEKNTVYLQMNSLKPEDTAVYYCAAETFIWGKGTQVTVSS", "polyreactivity (PSR sort gate)": "low polyreactivity"},
      {"sequence": "QLQLVESVRGLVQAGGSLRLSCAASGGIFDTYAKGWYRQAPCKERELVASISRSGSTNYADSVKGRFTISRDNAKNTVYLQMNSLKPEDSAVYYCAADVFYSIYDYWGQGTQVTVSS", "polyreactivity (PSR sort gate)": "low polyreactivity"},
      {"sequence": "QLQLVETGGGLVQAGGSLRLSCASSGRTFTAYAMVWYREAAGKESELVAAITLSGGRTYYADSVKGRFTISRDNAKNTVYLQMNSLKPEDTAVYYCATDYYWGQGTQVTVSS", "polyreactivity (PSR sort gate)": "high polyreactivity"},
      {"sequence": "QLQQHESGGGLVQAGDSPRLSCAESDNIFPDSVMCWYLQAPGKERELVATIGFGATTNYADSVKGRFTISRDNAKNTVYLQMNCLKPEDTAVYYSAADPLNYEYFCYWGQGTQVTVSS", "polyreactivity (PSR sort gate)": "low polyreactivity"},
      {"sequence": "QLQRVESGGGLVQAGGSLRLSCAASGSIFNENAMGWYIQAPGKERELVAGIDSGGNTYYADSVKGRFTISRDNAKNTVYLQMISLKPEDTAVYYCAKRGVPVRASATFLFEFDYWGQGTQVPVSS", "polyreactivity (PSR sort gate)": "low polyreactivity"},
      {"sequence": "QQQLQESGSGLVQAGGSLRLSCAASGNIFQDWVMGWYRQAPGKERELVAAISPGAITYYADSVKGRFTISRDNAKNTVYLQTNSLKPEDTAVYYCAAYYIVEYLHGYWGQGTRVTVSS", "polyreactivity (PSR sort gate)": "low polyreactivity"},
      {"sequence": "QVELVESGGALVQAGGSLSLSCAASGIIFSIYAMGWDRQAPGKERELVAAITYSGGRTYYADSVKGRFTISRDNAKNTVYLQMNSLKPEDTAVYYCAAVGYGEYYWGQGTQVTVSS", "polyreactivity (PSR sort gate)": "high polyreactivity"},
      {"sequence": "QVELVESGGGLVQAGGSLRLSCAASGGTFYRYAMGWYRQAPGKEREFVASITQRGGRTYYADSVMGRFTISRDNAKNTVYLQMNSLIPEDTACYYCAAQGYKYWHGDGSDYWGQGSQVTVSS", "polyreactivity (PSR sort gate)": "high polyreactivity"},
      {"sequence": "QVELVESGGGLVQAGGSLRLSCAASGRIFFYNGMGWYRQAPGKERELVAAINRSGGSTYYADSVKGRFTISRDNAKNTVYLQMNSLKPEDTAVYYCNAASFTVPMDYWGHGTQVTVSS", "polyreactivity (PSR sort gate)": "low polyreactivity"},
      {"sequence": "QVELVESGGGLVQAGGSLRLSCAASGRISYLYTMGWYRQAPGKERELFAASRWRDGSTYYADSVKGRFTISRDNAKTTVYLQMNSLKPEDTAVYFCGATPVGFYWYDYWGQGTQVTVSS", "polyreactivity (PSR sort gate)": "low polyreactivity"},
      {"sequence": "QVELVESGGGLVQAGGSLRLSCAASGSTFYYNAMGWYRQGPGTERELVAASTFTGGSTYADSVKGRFTISRDNAKNTVYLQMTSLKPEDTAVYYCAATIQRHDYLGTGYDYWGQGTQVTVSS", "polyreactivity (PSR sort gate)": "low polyreactivity"},
      {"sequence": "QVELVESGGGLVQAGRSLRLSCAASGRILVSYAMGWYRQAPGKERELVAGITSGGDSTYYADSVKGRFTISRDNAKNTVYLQMNSLKPEDTAVYYCDADRDSYRGRKNVRERYTYWGQGTQVTVSS", "polyreactivity (PSR sort gate)": "high polyreactivity"},
      {"sequence": "QVELVESGGGLVQPGGSLRLSCAASGSTFYYYAMGWYRQAPGKERELVATISSGSSTNYADSVKGRFTISRDNAKNTVYLQMNSLKPEDTAVYYCAADRWYITLSIDATISYEYWGQGTQVTVSS", "polyreactivity (PSR sort gate)": "low polyreactivity"},
      {"sequence": "QVEVVESGGGLVQAGGSLRLSCAASGRNFRFNAMGWYRQAPGKERELVAAISFRGGSTYYADTVKGRFTISRDNAKNTVYGQINSLKPEDPAVYYCAARARTGTYRDMYYWGQGTQVTVSS", "polyreactivity (PSR sort gate)": "high polyreactivity"},
      {"sequence": "QVHHEESGGGLVQAGGSLRLSCAASGGIFYLNDMGWYRQAPGKERELVAAITGTGGNTYYADSVKGRFTISRDNAKNTVYLQMNSLKPEDTAVYYCAAQHYWVTSYLSSYDYWGQGTQVTVSS", "polyreactivity (PSR sort gate)": "low polyreactivity"},
      {"sequence": "QVHHVESGGGLVQAGGNLRLSCQASGSTFDENDMGWYRQPQGKERELVAVISICTSTNYADSVKGRFTISRDNAKNTVYLQMNSLKPEDTAVYYFDAFVPGSYLDAIVGNAFNYWGQGTQVTVSS", "polyreactivity (PSR sort gate)": "low polyreactivity"},
      {"sequence": "QVHIVESGGGLVQAGGSLRLICAASGRTFNGYVMGWYRQAPGKEREFVAVINWSGGNTYYADSVKGRFTISRDNAKNTVYLQMNSLKPEDTAVYYCAARRVRSYAYDYWGQGTQVTVSS", "polyreactivity (PSR sort gate)": "high polyreactivity"},
      {"sequence": "QVHIVESGGGLVQAGGSLRLSCADSGSIFLSNVMGSYRQAPGKERELVDDITRSGGSTYYADSVKGRFTISRDNAKNTVYLQMNSLKPEDTAVYYCNAYEYLSAGYDYWGQGTQVTVSS", "polyreactivity (PSR sort gate)": "low polyreactivity"},
      {"sequence": "QVHLEESGGGLVQEGGSHRLSCAASGGTFFSYDMGWYRQAPGKERELVAAISATGGSTYYADSVKGRFTISRDNAKNTVYLQMNSLKPEDTAVYYCNAYQESGTYLRMDYWGQGTQVTVSS", "polyreactivity (PSR sort gate)": "low polyreactivity"},
      {"sequence": "QVHLLESGGGLFQPGGSLRLSCAASGRIFTSYAMGWYRPAPGKESELVAAISWGGGRTYYADSVKGRYTISRDNAKNTVYLQMNSVKPEDTAVYYCAALIADRDSPYDYWGQGTQVTVSS", "polyreactivity (PSR sort gate)": "high polyreactivity"},
      {"sequence": "QVHLLESGGGLVQAGGSLRLSCAAPGSTLFNYDMGWSRQAPGKERELLAAITTSGDSTYYADSVKGRFTISRDNAKNTVYFQMNSLKPEDTAVYYCNADVFKTVFYIDRYYYWGQGTKVTVSS", "polyreactivity (PSR sort gate)": "low polyreactivity"},
      {"sequence": "QVHLQESGDGLLQAVGSLRLSCAASGYISGYYYRGWYRQAPGKERELVAGIDAFGSSTNYADCVKGRFTISRDNSTNTVYLQMNSLKPEDTAVYYWAARPDGDRLFSYWGQGTQVTVSS", "polyreactivity (PSR sort gate)": "low polyreactivity"},
      {"sequence": "QVHLQESGGGLVQAGGSLRLSCAASGTISDSGLMGWYRQAPGKERELVAGISSGGINNYADSVKGRFTISRDNAKYTEYLQMNSLKPEDTAVYWGQGTQVTLSS", "polyreactivity (PSR sort gate)": "low polyreactivity"},
      {"sequence": "QVHLQESGGGLVQAGGSLRLSCAASRTIFRISDMGSYRQAPGKEREFVAAITYGANTYYADSGKGRFTISRDNAKNSVYLQMNSLKADDTAVYYCAVPPVKETILDYWGQGTQVNVSS", "polyreactivity (PSR sort gate)": "low polyreactivity"}
    ]}
  ]
}
